{"source": "the supplement of paper PMC11316812", "key": {"MCF7": {"tested_on": "MCF7", "test": "percentage of EdU-negative (G0-arrested) nuclei per well, 72 h; higher = more G0 arrest", "conditions": "reference: sequence is the full UniProt precursor, the tested protein was the secreted form or ectodomain"}, "hTERT-HMEC": {"tested_on": "hTERT-HMEC", "test": "percentage of EdU-negative (G0-arrested) nuclei per well, 72 h; higher = more G0 arrest", "conditions": "reference: sequence is the full UniProt precursor, the tested protein was the secreted form or ectodomain"}, "[1]": {"conditions": "protein concentration 0.0225 µM"}, "[2]": {"conditions": "protein concentration 0.03125 µM"}, "[3]": {"conditions": "protein concentration 0.3125 µM"}, "[4]": {"conditions": "protein concentration 0.00771429 µM"}, "[5]": {"conditions": "protein concentration 0.0771429 µM"}}, "note": "± gives the standard deviation of the averaged measurements.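 Further: secreted proteins added to cultured cells, EdU pulse at the end, nuclei found by Hoechst imaging, EdU status from nuclear versus surrounding ring intensity ratio, PBS as neutral control.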"}
{"sequence": "MAKMNLSSYILILTFSLFSQGILLSASKSIRNLDDDMVFNTFRLGKGFQKEDTAEKSVIAPSLEQYKNDESSFMNEEENKVSKNTGSKHNFLNHGLPLNLAIKPYLALKGSVAFPAENGVQNTESTQEKREIGDEENSAKFPIGRRDFDMLRCMLGRVYRPCWQV", "values": [{"measurement": "percentage of EdU-negative", "setting": "MCF7; [1]", "value": "26 ± 2.4", "unit": "%"}, {"measurement": "percentage of EdU-negative", "setting": "MCF7; protein concentration 0.225 µM", "value": "26 ± 1.2", "unit": "%"}, {"measurement": "percentage of EdU-negative", "setting": "hTERT-HMEC; [1]", "value": "5.49 ± 0.6", "unit": "%"}, {"measurement": "percentage of EdU-negative", "setting": "hTERT-HMEC; protein concentration 0.225 µM", "value": "5.82 ± 0.072", "unit": "%"}]}
{"sequence": "MAKSFPVFSLLSFILIHLVLSSVSGPRHWWPPRGIIKVKCPYEKVNLSWYNGTVNPCPGLYQPICGTNFITYDNPCILCVESLKSHGRIRFYHDGKC [Q6IE38]", "values": [{"measurement": "percentage of EdU-negative", "setting": "MCF7; [1]", "value": "24 ± 0.13", "unit": "%"}, {"measurement": "percentage of EdU-negative", "setting": "MCF7; protein concentration 0.225 µM", "value": "27 ± 1.2", "unit": "%"}, {"measurement": "percentage of EdU-negative", "setting": "hTERT-HMEC; [1]", "value": "6.19 ± 0.33", "unit": "%"}, {"measurement": "percentage of EdU-negative", "setting": "hTERT-HMEC; protein concentration 0.225 µM", "value": "6.12 ± 0.94", "unit": "%"}]}
{"sequence": "MAKVFSFILVTTALTMGREISALEDCAQEQMRLRAQVRLLETRVKQQQVKIKQLLQENEVQFLDKGDENTVIDLGSKRQYADCSEIFNDGYKLSGFYKIKPLQSPAEFSVYCDMSDGGGWTVIQRRSDGSENFNRGWKDYENGFGNFVQKHGEYWLGNKNLHFLTTQEDYTLKIDLADFEKNSRYAQYKNFKVGDEKNFYELNIGEYSGTAGDSLAGNFHPEVQWWASHQRMKFSTWDRDHDNYEGNCAEEDQSGWWFNRCHSANLNGVYYSGPYTAKTDNGIVWYTWHGWWYSLKSVVMKIRPNDFIPNVI", "values": [{"measurement": "percentage of EdU-negative", "setting": "MCF7; [2]", "value": "24.5 ± 4.1", "unit": "%"}, {"measurement": "percentage of EdU-negative", "setting": "MCF7; [3]", "value": "22.8 ± 2.3", "unit": "%"}, {"measurement": "percentage of EdU-negative", "setting": "hTERT-HMEC; [2]", "value": "6.18 ± 1.3", "unit": "%"}, {"measurement": "percentage of EdU-negative", "setting": "hTERT-HMEC; [3]", "value": "5.22 ± 0.14", "unit": "%"}]}
{"sequence": "MALAALMIALGSLGLHTWQAQAVPILPLGLAPDTFDDTYVGCAEEMEEKAAPLLKEEMAHHALLRESWEAAQETWEDKRRGLTLPPGFKAQNGIAIMVYTNSSNTLYWELNQAVRTGGGSRELYMRHFPFKALHFYLIRALQLLRGSGGCSRGPGEVVFRGVGSLRFEPKRLGDSVRLGQFASSSLDKAVAHRFGNATLFSLTTCFGAPIQAFSVFPKEREVLIPPHEVFLVTRFSQDGAQSLVTLWSYNQTCSHFNCAYLGGEKRRGCVSAPGALGTGDLHMTKRHLQQP [Q96L15]", "values": [{"measurement": "percentage of EdU-negative", "setting": "MCF7; protein concentration 0.016 µM", "value": "26.5 ± 3.2", "unit": "%"}, {"measurement": "percentage of EdU-negative", "setting": "MCF7; protein concentration 0.16 µM", "value": "29 ± 1.5", "unit": "%"}, {"measurement": "percentage of EdU-negative", "setting": "hTERT-HMEC; protein concentration 0.016 µM", "value": "5.18 ± 0.43", "unit": "%"}, {"measurement": "percentage of EdU-negative", "setting": "hTERT-HMEC; protein concentration 0.16 µM", "value": "7.23 ± 0.71", "unit": "%"}]}
{"sequence": "MALDYLLLLLLASAVAAMEETLMDTRTATAELGWTANPASGWEEVSGYDENLNTIRTYQVCNVFEPNQNNWLLTTFINRRGAHRIYTEMRFTVRDCSSLPNVPGSCKETFNLYYYETDSVIATKKSAFWSEAPYLKVDTIAADESFSQVDFGGRLMKVNTEVRSFGPLTRNGFYLAFQDYGACMSLLSVRVFFKKCPSIVQNFAVFPETMTGAESTSLVIARGTCIPNAEEVDVPIKLYCNGDGEWMVPIGRCTCKPGYEPENSVACKACPAGTFKASQEAEGCSHCPSNSRSPAEASPICTCRTGYYRADFDPPEVACTSVPSGPRNVISIVNETSIILEWHPPRETGGRDDVTYNIICKKCRADRRSCSRCDDNVEFVPRQLGLTECRVSISSLWAHTPYTFDIQAINGVSSKSPFPPQHVSVNITTNQAAPSTVPIMHQVSATMRSITLSWPQPEQPNGIILDYEIRYYEKEHNEFNSSMARSQTNTARIDGLRPGMVYVVQVRARTVAGYGKFSGKMCFQTLTDDDYKSELREQLPLIAGSAAAGVVFVVSLVAISIVCSRKRAYSKEAVYSDKLQHYSTGRGSPGMKIYIDPFTYEDPNEAVREFAKEIDVSFVKIEEVIGAGEFGEVYKGRLKLPGKREIYVAIKTLKAGYSEKQRRDFLSEASIMGQFDHPNIIRLEGVVTKSRPVMIITEFMENGALDSFLRQNDGQFTVIQLVGMLRGIAAGMKYLAEMNYVHRDLAARNILVNSNLVCKVSDFGLSRYLQDDTSDPTYTSSLGGKIPVRWTAPEAIAYRKFTSASDVWSYGIVMWEVMSFGERPYWDMSNQDVINAIEQDYRLPPPMDCPAALHQLMLDCWQKDRNSRPRFAEIVNTLDKMIRNPASLKTVATITAVPSQPLLDRSIPDFTAFTTVDDWLSAIKMVQYRDSFLTAGFTSLQLVTQMTSEDLLRIGITLAGHQKKILNSIHSMRVQISQSPTAMA", "values": [{"measurement": "percentage of EdU-negative", "setting": "MCF7; [4]", "value": "26.7 ± 1.5", "unit": "%"}, {"measurement": "percentage of EdU-negative", "setting": "MCF7; [5]", "value": "23.4 ± 1.5", "unit": "%"}, {"measurement": "percentage of EdU-negative", "setting": "hTERT-HMEC; [4]", "value": "4.82 ± 0.12", "unit": "%"}, {"measurement": "percentage of EdU-negative", "setting": "hTERT-HMEC; [5]", "value": "5.86 ± 0.98", "unit": "%"}]}
{"sequence": "MALEKSLVRLLLLVLILLVLGWVQPSLGKESRAKKFQRQHMDSDSSPSSSSTYCNQMMRRRNMTQGRCKPVNTFVHEPLVDVQNVCFQEKVTCKNGQGNCYKSNSSMHITDCRLTNGSRYPNCAYRTSPKERHIIVACEGSPYVPVHFDASVEDST", "values": [{"measurement": "percentage of EdU-negative", "setting": "MCF7; [2]", "value": "25.8 ± 0.52", "unit": "%"}, {"measurement": "percentage of EdU-negative", "setting": "MCF7; [3]", "value": "24.63 ± 0.044", "unit": "%"}, {"measurement": "percentage of EdU-negative", "setting": "hTERT-HMEC; [2]", "value": "4.76 ± 0.11", "unit": "%"}, {"measurement": "percentage of EdU-negative", "setting": "hTERT-HMEC; [3]", "value": "4.52 ± 0.25", "unit": "%"}]}
{"sequence": "MALFAVFQTTFFLTLLSLRTYQSEVLAERLPLTPVSLKVSTNSTRQSLHLQWTVHNLPYHQELKMVFQIQISRIETSNVIWVGNYSTTVKWNQVLHWSWESELPLECATHFVRIKSLVDDAKFPEPNFWSNWSSWEEVSVQDSTGQDILFVFPKDKLVEEGTNVTICYVSRNIQNNVSCYLEGKQIHGEQLDPHVTAFNLNSVPFIRNKGTNIYCEASQGNVSEGMKGIVLFVSKVLEEPKDFSCETEDFKTLHCTWDPGTDTALGWSKQPSQSYTLFESFSGEKKLCTHKNWCNWQITQDSQETYNFTLIAENYLRKRSVNILFNLTHRVYLMNPFSVNFENVNATNAIMTWKVHSIRNNFTYLCQIELHGEGKMMQYNVSIKVNGEYFLSELEPATEYMARVRCADASHFWKWSEWSGQNFTTLEAAPSEAPDVWRIVSLEPGNHTVTLFWKPLSKLHANGKILFYNVVVENLDKPSSSELHSIPAPANSTKLILDRCSYQICVIANNSVGASPASVIVISADPENKEVEEERIAGTEGGFSLSWKPQPGDVIGYVVDWCDHTQDVLGDFQWKNVGPNTTSTVISTDAFRPGVRYDFRIYGLSTKRIACLLEKKTGYSQELAPSDNPHVLVDTLTSHSFTLSWKDYSTESQPGFIQGYHVYLKSKARQCHPRFEKAVLSDGSECCKYKIDNPEEKALIVDNLKPESFYEFFITPFTSAGEGPSATFTKVTTPDEHSSMLIHILLPMVFCVLLIMVMCYLKSQWIKETCYPDIPDPYKSSILSLIKFKENPHLIIMNVSDCIPDAIEVVSKPEGTKIQFLGTRKSLTETELTKPNYLYLLPTEKNHSGPGPCICFENLTYNQAASDSGSCGHVPVSPKAPSMLGLMTSPENVLKALEKNYMNSLGEIPAGETSLNYVSQLASPMFGDKDSLPTNPVEAPHCSEYKMQMAVSLRLALPPPTENSSLSSITLLDPGEHYC", "values": [{"measurement": "percentage of EdU-negative", "setting": "MCF7; [1]", "value": "26.44 ± 0.24", "unit": "%"}, {"measurement": "percentage of EdU-negative", "setting": "MCF7; protein concentration 0.225 µM", "value": "24.9 ± 2", "unit": "%"}, {"measurement": "percentage of EdU-negative", "setting": "hTERT-HMEC; [1]", "value": "4.25 ± 0.45", "unit": "%"}, {"measurement": "percentage of EdU-negative", "setting": "hTERT-HMEC; protein concentration 0.225 µM", "value": "5.8 ± 0.95", "unit": "%"}]}
